Test results as given in the supplement of paper PMC10567573.

B1: SPATS1 (parent)
chain: GRKKYDIDPRNGIPKLTPGDNPYM

Variants of: B1
Test: protein stability index of a GFP-peptide fusion (GPS, HEK-293T) (PSI 1-6); higher = more stable
Conditions: c terminus: a fixed tail appended
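Further: lentivirally expressed fusions sorted by FACS into six bins by GFP to DsRed ratio, PSI derived from sequencing read proportions per bin multiplied by bin number.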

Variant	protein stability index
GRKKYDIDPRNGIPKLTLGDNPYM	2.81
GRKKYDIDPRNGIPKLTRGDNPYM	3.24
GRKKYDIDPRNGIPKLTQGDNPYM	3.86
GRKKYDIDPRNGIPKLTDGDNPYM	3.82
GRKKYDIDPRNGIPKLTGGDNPYM	2.98
GRKKYDIDPRNGIPKLTCGDNPYM	3.38
GRKKYDIDPRNGIPKLTMGDNPYM	3.18
GRKKYDIDPRNGIPKLTVGDNPYM	3.34
GRKKYDIDPRNGIPKLTYGDNPYM	2.46
GRKKYDIDPRNGIPKLTAGDNPYM	3.86
GRKKYDIDPRNGIPKLTNGDNPYM	4.09
GRKKYDIDPRNGIPKLTFGDNPYM	1.9
GRKKYDIDPRNGIPKLTWGDNPYM	2.73
GRKKYDIDPRNGIPKLTEGDNPYM	3.92
GRKKYDIDPRNGIPKLTIGDNPYM	3.27
GRKKYDIDPRNGIPKLTSGDNPYM	3.55
GRKKYDIDPRNGIPKLTTGDNPYM	3.85
GRKKYDIDPRNGIPKLTHGDNPYM	3.42
GRKKYDIDPRNGIPKLTKGDNPYM	3.62
GRKKYDIDPRNGIPKLTPGLNPYM	2.71
GRKKYDIDPRNGIPKLTPGRNPYM	3.74
GRKKYDIDPRNGIPKLTPGKNPYM	3.74
GRKKYDIDPRNGIPKLTPGVNPYM	3.37
GRKKYDIDPRNGIPKLTPGMNPYM	2.46

Variant	protein stability index
GRKKYDIDPRNGIPKLTPGHNPYM	3.06
GRKKYDIDPRNGIPKLTPGGNPYM	3.3
GRKKYDIDPRNGIPKLTPGENPYM	3.65
GRKKYDIDPRNGIPKLTPGPNPYM	3.2
GRKKYDIDPRNGIPKLTPGTNPYM	3.12
GRKKYDIDPRNGIPKLTPGYNPYM	2.49
GRKKYDIDPRNGIPKLTPGCNPYM	3.47
GRKKYDIDPRNGIPKLTPGNNPYM	3.12
GRKKYDIDPRNGIPKLTPGINPYM	2.18
GRKKYDIDPRNGIPKLTPGWNPYM	2.41
GRKKYDIDPRNGIPKLTPGQNPYM	3.36
GRKKYDIDPRNGIPKLTPGANPYM	3.58
GRKKYDIDPRNGIPKLTPGSNPYM	3.79
GRKKYDIDPRNGIPKLTPGFNPYM	2.33
GRKKYDIDPRNGIPKLTPGDGPYM	3.96
GRKKYDIDPRNGIPKLTPGDAPYM	3.84
GRKKYDIDPRNGIPKLTPGDEPYM	4.6
GRKKYDIDPRNGIPKLTPGDHPYM	3.33
GRKKYDIDPRNGIPKLTPGDFPYM	2.78
GRKKYDIDPRNGIPKLTPGDLPYM	2.88
GRKKYDIDPRNGIPKLTPGDIPYM	3.5
GRKKYDIDPRNGIPKLTPGDDPYM	4.23
GRKKYDIDPRNGIPKLTPGDCPYM	3.34
GRKKYDIDPRNGIPKLTPGDKPYM	3.51

Variant	protein stability index
GRKKYDIDPRNGIPKLTPHDNPYM	3.34
GRKKYDIDPRNGIPKLTPWDNPYM	2.3
GRKKYDIDPRNGIPKLTPMDNPYM	2.81
GRKKYDIDPRNGIPKLTPNDNPYM	3.76
GRKKYDIDPRNGIPKLTPRDNPYM	3.35
GRKKYDIDPRNGIPKLTPEDNPYM	4.69
GRKKYDIDPRNGIPKLTPADNPYM	3.32
GRKKYDIDPRNGIPKLTPKDNPYM	3.31
GRKKYDIDPRNGIPKLTPVDNPYM	2.88
GRKKYDIDPRNGIPKLTPQDNPYM	3.35
GRKKYDIDPRNGIPKLTPSDNPYM	3.59
GRKKYDIDPRNGIPKLTPLDNPYM	3.44
GRKKYDIDPRNGIPKLTPYDNPYM	2.79
GRKKYDIDPRNGIPKLTPIDNPYM	3.28
GRKKYDIDPRNGIPKLTPFDNPYM	2.63
GRKKYDIDPRNGIPKLTPDDNPYM	3.83
GRKKYDIDPRNGIPKLTPPDNPYM	3.73
GRKKYDIDPRNGIPKLTPCDNPYM	3.21
GRKKYDIDPRNGIPKLTPTDNPYM	3.59
GRKKYDIDPRNGIPKQTPGDNPYM	4.08
GRKKYDIDPRNGIPKSTPGDNPYM	3.67
GRKKYDIDPRNGIPKPTPGDNPYM	3.67
GRKKYDIDPRNGIPKRTPGDNPYM	3.59
GRKKYDIDPRNGIPKTTPGDNPYM	3.98

Variant	protein stability index
GRKKYDIDPRNGIPKVTPGDNPYM	4
GRKKYDIDPRNGIPKWTPGDNPYM	2.67
GRKKYDIDPRNGIPKYTPGDNPYM	3.22
GRKKYDIDPRNGIPKLEPGDNPYM	4.33
GRKKYDIDPRNGIPKLSPGDNPYM	4.08
GRKKYDIDPRNGIPKLFPGDNPYM	2.72
GRKKYDIDPRNGIPKLRPGDNPYM	2.95
GRKKYDIDPRNGIPKLAPGDNPYM	3.58
GRKKYDIDPRNGIPKLNPGDNPYM	3.48
GRKKYDIDPRNGIPKLGPGDNPYM	3.48
GRKKYDIDPRNGIPKLPPGDNPYM	3.23
GRKKYDIDPRNGIPKLVPGDNPYM	3.2
GRKKYDIDPRNGIPKLQPGDNPYM	4.21
GRKKYDIDPRNGIPKLIPGDNPYM	3.19
GRKKYDIDPRNGIPKLCPGDNPYM	3.13
GRKKYDIDPRNGIPKLWPGDNPYM	2.47
GRKKYDIDPRNGIPKLMPGDNPYM	3.02
GRKKYDIDPRNGIPKLDPGDNPYM	3.32
GRKKYDIDPRNGIPKLLPGDNPYM	3.31
GRKKYDIDPRNGIPKLHPGDNPYM	3.34
GRKKYDIDPRNGIPKLKPGDNPYM	3.57
GRKKYDIDPRNGIPKLYPGDNPYM	2.89
